Molecular target: histone H3 K115C (UniProt P84233)
Test: cross-linking

histone H3 K115C (from UniProt P84233 2-136) (natural protein)
efficiency of crosslinking at H3 K115C (H3-H3’): 80%
